B1: Vibrio consensus Fur box (dsDNA)
DNA 1: AATGATAATAATTATCATT
DNA 2: AATGATAATTATTATCATT
B2: Vibrio anti-consensus (least conserved) (dsDNA)
DNA 1: CCGTGCGCACTCCGCAGGG
DNA 2: CCCTGCGGAGTGCGCACGG

Experiments:
[1] = molecular target: Ferric uptake regulator (Fur) from Aliivibrio salmonicida (Aliivibrio salmonicida); experiment: SEC; Superdex 200 16/60; 300 mM NaCl, 50 mM Tris-HCl, 5 mM beta-mercaptoethanol, pH 7.5; second purification step after IMAC
[2] = molecular target: T1, AsFur (ferric uptake regulator) (Aliivibrio salmonicida, UniProt Q7AUU7 1-147); experiment: EMSA; Mn2+ (100 uM MnCl2); EMSA: 20 mM Tris acetate pH 8.0, 1 mM MgCl2, 50 mM KCl, 1 mM DTT, 100 uM MnCl2, RT, 5 uM DNA, 0-80 uM AsFur, gel at 6 C; protection assay: 100 mM BisTrisPropane pH 7.5, 100 mM KCl, 5 mM MgSO4, 20 uM AsFur, 10 nM plasmid, RT then HinfI 37 C; details: protein: recombinant; tags: none stated (pDEST14; histidine-rich protein purified by IMAC); chain copies: 2; blunt
T1 sequence: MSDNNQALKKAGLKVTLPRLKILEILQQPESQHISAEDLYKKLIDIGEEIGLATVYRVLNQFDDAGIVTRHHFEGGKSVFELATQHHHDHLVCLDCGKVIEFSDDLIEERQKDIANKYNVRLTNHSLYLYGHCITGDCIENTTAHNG

| Molecule | stoichiometry N [1] | binding result [2] |
| --- | --- | --- |
| Ferric uptake regulator (Fur) from Aliivibrio salmonicida (natural protein) | 2 |  |
| B1 |  | binds |
| B2 |  | no binding |

Source: PMC7536154, “Biochemical characterization of ferric uptake regulator (Fur) from Aliivibrio salmonicida. Mapping the DNA sequence specificity through binding studies and structural modelling”
